Test results from PMC10102533.

Experiments:
[1] = target: PGLYRP1-mIgG1-Fc (not stated | mouse); experiment: SDS-PAGE and Western blot with or without reducing agent
[2] = target: mouse IgG2a-Fc (Fc only) (mouse); experiment: as above

**Q.** How did the stoichiometry N [1] turn out when PGLYRP1-mIgG1-Fc (Fc fusion) was run?
**A.** 2

**Q.** For “mouse IgG2a-Fc (Fc only) (domain or fragment)”, which stoichiometry N [2] is on record?
**A.** 2
